Reference: patent US20260133210A1, “CELL-FREE BIOSENSORS FOR IN VITRO DETECTION OF TARGET MOLECULES” (priority 2022, published 2026)

How the values were obtained:
[1] = test system: cell-free protein synthesis; test: Titration of analyte against an unregulated reporter plasmid (pT7-sfGFP) in a cell-free reaction; format: biochemical, E. coli; settings: 100 μM CuSO4
Procedure: A series of tuning experiments are next used to optimize the sensor. First, the optimal concentration of the aTF (CueR) is found for the non-cascaded sensor (e.g., pCue-sfGFP) through a series of ratiometric titrations between the aTF-enriched extract and the blank extract in both the presence and absence of analyte (see e.g., the data in FIG. 7). This experiment is an isothermal cell-free gene expression reaction held at 30° C. in a plate reader for […] using an established set of physiochemical conditions to maximize protein production in general. It may also be necessary to determine the concentration of analyte that saturates the cell-free sensor without inhibiting transcription and translation in vitro, which can be done with a simple titration of analyte against an unregulated reporter plasmid (e.g., pT7-sfGFP).

PbCl2 = test: Hand-validation of top PbrR variants from the SSM library screen; format: biochemical, E. coli; settings: top 10 variants with the highest fold change from each lead concentration
Text: The top 10 variants with the highest fold change from each lead concentration were hand-validated to validate the results from the SSM library screen.

lead = test: Enriched extract PbrR lead sensors; format: biochemical, E. coli; settings: FIG. 40 and 41
Procedure: Enriched extract is made by pre-expressing the transcription factor in the E. coli strain before lysing to generate the extract. […] It was also determined that a catechol reporter can be used for improved sensor output. This works by having the PbrR transcription factor bind to PbrO and drive expression of an enzyme that catalyzes a colorimetric change in catechol.

mf-Lon
decay of sfGFP signal (protein degradation) on mixing extracts (pdt-tagged sfGFP): Increasing the concentration of mf-Lon and supplying additional ATP (a co-substrate for the reaction) results in some signal decay

O=S(=O)([O-])[O-].[Cu+2] [CuSO4]
effect on cell-free protein synthesis [1]: shuts down cell-free protein synthesis

B1: M60F (protein)
chain: MNIQIGELAKRTACPVVTIRFYEQEGLLPPPGRSRGNFRLYGEEHVERLQFIRHCRSLDFPLSDVRTLLSYRKRPDQDCGEVNMLLDEHIRQVESRIGALLELKHHLVELREACSGARPAQSCGILQGLSDCVCDTRGTTAHPSD
modifications: Cupriavidus metallidurans
behaviour in the hand-validated SSM results (PbCl2): bind the promoter regardless of whether or not the ligand (lead) is present

B2: G128I, D64K, M60L, and P61N: quadruple variant of PbrR (SEQ ID NO: 47) (protein)
chain: MNIQIGELAKRTACPVVTIRFYEQEGLLPPPGRSRGNFRLYGEEHVERLQFIRHCRSLDLNLSKVRTLLSYRKRPDQDCGEVNMLLDEHIRQVESRIGALLELKHHLVELREACSGARPAQSCGILQILSDCVCDTRGTTAHPSD
modifications: Cupriavidus metallidurans
lead detection in enriched extract (lead): can detect lead at the limit of detection

B3: M60L (protein)
chain: MNIQIGELAKRTACPVVTIRFYEQEGLLPPPGRSRGNFRLYGEEHVERLQFIRHCRSLDLPLSDVRTLLSYRKRPDQDCGEVNMLLDEHIRQVESRIGALLELKHHLVELREACSGARPAQSCGILQGLSDCVCDTRGTTAHPSD
modifications: Cupriavidus metallidurans
behaviour in the hand-validated SSM results (PbCl2): promising
